Measured values from patent US20120034604A1.

Target: polyclonal anti-QRFSR antibody 3RBF-SAB
Test: competitive ELISA: free Opiorphin against coated Y-(PE)12-QRFSR for antibody 3RBF-SAB

- IC50: 0.03 µg/mL
Binder: QRFSR [Opiorphin QRFSR-peptide]
